PMC3274541 (2012)

Biological target: T1, GST-AIPL1 (Homo sapiens (Human), UniProt Q9NZN9)
T1 chain: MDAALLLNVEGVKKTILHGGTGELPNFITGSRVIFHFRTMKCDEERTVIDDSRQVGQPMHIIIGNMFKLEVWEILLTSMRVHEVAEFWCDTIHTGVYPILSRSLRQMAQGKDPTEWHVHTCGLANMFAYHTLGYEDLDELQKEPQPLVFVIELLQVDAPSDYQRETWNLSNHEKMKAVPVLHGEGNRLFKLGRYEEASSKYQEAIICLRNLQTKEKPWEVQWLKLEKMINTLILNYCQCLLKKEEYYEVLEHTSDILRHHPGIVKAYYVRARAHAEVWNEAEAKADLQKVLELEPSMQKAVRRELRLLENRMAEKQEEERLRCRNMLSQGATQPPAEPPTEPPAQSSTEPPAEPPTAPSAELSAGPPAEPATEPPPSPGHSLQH
Experiment: GST pull-down

binding result: binds
B1: His6-FAT10, recombinant purified (protein)
chain: MAPNASCLCVHVRSEEWDLMTFDANPYDSVKKIKEHVRSKTKVPVQDQVLLLGSKILKPRRSLSSYGIDKEKTIHLTLKVVKPSDEELPLFLVESGDEAKRHLLQVRRSSSVAQVKAMIETKTGIIPETQIVTCNGKRLEDGKMMADYGIRKGNLLFLACYCIGG
